{"source": "paper PMC6089609", "about": "(Methods in cell biology, 2015)", "target": "the molecule itself", "assay": "negative stain and cryo-electron microscopy of assemblies on liposomes"}
{"protein": "EndophilinA1 (natural protein, human, UniProt Q99962 1-352, looked up) MSVAGLKKQFHKATQKVSEKVGGAEGTKLDDDFKEMERKVDVTSRAVMEIMTKTIEYLQPNPASRAKLSMINTMSKIRGQEKGPGYPQAEALLAEAMLKFGRELGDDCNFGPALGEVGEAMRELSEVKDSLDIEVKQNFIDPLQNLHDKDLREIQHHLKKLEGRRLDFDYKKKRQGKIPDEELRQALEKFDESKEIAESSMFNLLEMDIEQVSQLSALVQAQLEYHKQAVQILQQVTVRLEERIRQASSQPRREYQPKPRMSLEFPTGDSTQPNGGLSHTGTPKPSGVQMDQPCCRALYDFEPENEGELGFKEGDIITLTNQIDENWYEGMLHGHSGFFPINYVEILVALPH", "values": [{"measurement": "binding result", "result": "binds"}]}
